Article PMC7693034, “Identification of Amino Acid Residues Responsible for C−H Activation in Type‐III Copper Enzymes by Generating Tyrosinase Activity in a Catechol Oxidase” (Angewandte Chemie (International Ed. in English), 2020)
Changes are numbered by the printed parent chain. Names and notes keep the numbering of the source.

T1: CgAUS (aurone synthase from Coreopsis grandiflora) (Coreopsis grandiflora, UniProt A0A075DN54)
T1 construct: recombinant from E. coli, purified to homogeneity
T1 sequence (A0A075DN54 86-602): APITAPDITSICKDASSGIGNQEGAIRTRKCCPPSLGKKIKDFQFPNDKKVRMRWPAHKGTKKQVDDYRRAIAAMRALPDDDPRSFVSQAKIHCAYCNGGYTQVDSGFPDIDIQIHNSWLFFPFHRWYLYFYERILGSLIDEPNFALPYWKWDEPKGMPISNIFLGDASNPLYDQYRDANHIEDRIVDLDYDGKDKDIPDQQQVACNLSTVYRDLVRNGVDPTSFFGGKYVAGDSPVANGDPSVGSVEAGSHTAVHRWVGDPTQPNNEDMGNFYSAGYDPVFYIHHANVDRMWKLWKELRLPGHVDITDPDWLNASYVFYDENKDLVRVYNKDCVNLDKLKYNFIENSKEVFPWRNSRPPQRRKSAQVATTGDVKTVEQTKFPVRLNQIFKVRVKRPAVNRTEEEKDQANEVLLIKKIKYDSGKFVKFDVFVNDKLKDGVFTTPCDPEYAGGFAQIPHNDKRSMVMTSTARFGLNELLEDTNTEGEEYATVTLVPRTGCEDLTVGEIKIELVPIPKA

T2: CgAUS (aurone synthase from Coreopsis grandiflora) (Coreopsis grandiflora, UniProt A0A075DN54, C182S)
T2 construct: recombinant from E. coli, purified to homogeneity
T2 sequence (A0A075DN54 86-602 C182S): T1 sequence (A0A075DN54 86-602) with C97S

T3: CgAUS (aurone synthase from Coreopsis grandiflora) (Coreopsis grandiflora, UniProt A0A075DN54, C182S/T338D/R342D)
T3 construct: recombinant from E. coli, purified to homogeneity
T3 sequence (A0A075DN54 86-602 C182S/T338D/R342D): T1 sequence (A0A075DN54 86-602) with C97S, T253D, R257D

T4: CgAUS (aurone synthase from Coreopsis grandiflora) (Coreopsis grandiflora, UniProt A0A075DN54, R342D)
T4 construct: recombinant from E. coli, purified to homogeneity
T4 sequence (A0A075DN54 86-602 R342D): T1 sequence (A0A075DN54 86-602) with R257D

T5: CgAUS (aurone synthase from Coreopsis grandiflora) (Coreopsis grandiflora, UniProt A0A075DN54, T338D)
T5 construct: recombinant from E. coli, purified to homogeneity
T5 sequence (A0A075DN54 86-602 T338D): T1 sequence (A0A075DN54 86-602) with T253D

T6: CgAUS (aurone synthase from Coreopsis grandiflora) (Coreopsis grandiflora, UniProt A0A075DN54, T338D/R342D)
T6 construct: recombinant from E. coli, purified to homogeneity
T6 sequence (A0A075DN54 86-602 T338D/R342D): T1 sequence (A0A075DN54 86-602) with T253D, R257D

B1: CgAUS (aurone synthase from Coreopsis grandiflora) (Coreopsis grandiflora; C182S) (protein)
chain: T1 sequence (A0A075DN54 86-602) with C97S
notes: recombinant from E. coli, purified to homogeneity
B2: CgAUS (aurone synthase from Coreopsis grandiflora) (Coreopsis grandiflora; R342D/T338D) (protein)
chain: T1 sequence (A0A075DN54 86-602) with T253D, R257D
notes: as for B1
B3: CgAUS (aurone synthase from Coreopsis grandiflora) (Coreopsis grandiflora; T338D) (protein)
chain: T1 sequence (A0A075DN54 86-602) with T253D
notes: as for B1
B4: CgAUS (aurone synthase from Coreopsis grandiflora) (Coreopsis grandiflora; R342D) (protein)
chain: T1 sequence (A0A075DN54 86-602) with R257D
notes: as for B1
B5: CgAUS (aurone synthase from Coreopsis grandiflora) (Coreopsis grandiflora; C182S/R342D/T338D) (protein)
chain: T1 sequence (A0A075DN54 86-602) with C97S, T253D, R257D
notes: as for B1

Experiments:
[1] = target: T1, CgAUS (aurone synthase from Coreopsis grandiflora); assay: enzyme kinetics, diphenolase activity; assay type: biochemical; conditions: type-III copper enzyme, copper content 46.1%; read-out: Dopamine / K m
Text: (§1) enzyme kinetics, diphenolase activity on CgAUS (aurone synthase from Coreopsis grandiflora)

[2] = target: T2, CgAUS (aurone synthase from Coreopsis grandiflora); assay: enzyme kinetics, diphenolase activity; assay type: biochemical; conditions: type-III copper enzyme; read-out: Dopamine / K m
Text: as §1

[3] = target: T3, CgAUS (aurone synthase from Coreopsis grandiflora); assay: enzyme kinetics, diphenolase activity; assay type: biochemical; conditions: type-III copper enzyme; read-out: Dopamine / K m
Text: as §1

[4] = target: T4, CgAUS (aurone synthase from Coreopsis grandiflora); assay: enzyme kinetics, diphenolase activity; assay type: biochemical; conditions: type-III copper enzyme; read-out: Dopamine / K m
Text: as §1

[5] = target: T5, CgAUS (aurone synthase from Coreopsis grandiflora); assay: enzyme kinetics, diphenolase activity; assay type: biochemical; conditions: type-III copper enzyme; read-out: Dopamine / K m
Text: as §1

[6] = target: T6, CgAUS (aurone synthase from Coreopsis grandiflora); assay: enzyme kinetics, diphenolase activity; assay type: biochemical; conditions: type-III copper enzyme; read-out: Dopamine / K m
Text: as §1

[7] = substrate: NCCc1ccc(O)cc1; assay: enzyme kinetics, monophenolase activity; assay type: biochemical, Coreopsis grandiflora; conditions: type-III copper enzyme
Text: enzyme kinetics, monophenolase activity on CgAUS (aurone synthase from Coreopsis grandiflora)

| Molecule | Km [7] [µM] | kcat [7] [s⁻¹] | also measured |
| --- | --- | --- | --- |
| NCCc1ccc(O)c(O)c1 [dopamine] | – | – | Km [1]: 8630 ± 280 µM; Km [2]: 1260 ± 40 µM; Km [3]: 60 µM; Km [4]: 1260 ± 130 µM; Km [5]: 1930 ± 120 µM; Km [6]: 240 ± 20 µM |
| B1 | 3590 ± 330 | 0.55 ± 0.04 | – |
| B2 | 1090 ± 90 | 9.48 ± 0.55 | – |
| B3 | 30900 ± 7270 | 2.14 ± 0.16 | – |
| B4 | 4010 ± 290 | 8.26 ± 0.48 | – |
| B5 | 20 ± 0 | 6.52 ± 0.39 | – |
